Test results published in the RNAGym collection of RNA variant scans (doi:10.1073/pnas.2313332121).

B1: TPR t1 (parent)
chain: GACCAAUCUGCCCUCAGAGCUCGAGAACAUCUUCGGAUGCAGAGGAGGCAGGCUUCGGUGGCGCGAUAGCGCCAACGUCCUCAACCUCCAAUGCAUCCCACCACAUGAUGAUGCCUGAAGAGCCUUGGUUUUUUG

Variants of: B1
Experiment: polymerase ribozyme fitness, log enrichment relative to wild type (log ratio); higher = more active; in vitro selection for triplet polymerase activity
How it was run: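 In triplicate, a single round of in vitro selection was run on each mutant library, PCR-built and transcribed, covering one subunit of a heterodimeric triplet polymerase ribozyme. Frozen incubation at −7 °C followed annealing with a biotinylated primer, partner subunit and triplets, and extended constructs were then gel-excised, streptavidin-captured and taken through RT-PCR. Fitness is the logarithm of genotype enrichment over wild-type enrichment, from inverse-variance-weighted replicate averages of Illumina-sequenced inputs and outputs. […] only genotypes with ≥10 input reads and ≥1 read per output were kept.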

| Variant | polymerase ribozyme fitness (log ratio) |
| --- | --- |
| C82A C86G | -1.3 |
| G77U U92G | -2.77 |
| C85A C124A U126G | -0.918 |
| U81G U125A | -3.53 |
| U81A C88U | -0.655 |
| C86A C124A | 1.35 |
| A83C G120A | 0.209 |
| C79A C89A A118G | -3.86 |
| G77U C79A | -2.32 |
| C85U A95U C115A G120C | -0.474 |
| A84U A90G C98G U109A A121U | -3.5 |
| U81C C85U A118G G122U C124U U129A | -3.58 |
| C85A C94G G110A | -3.12 |
| U78C U92A | -3.1 |
| U78C C85G U129C | -2.13 |
| C86A G110U | -2.79 |
| A84G C98U A100U | -4.01 |
| C82U A108U A121G | -4.59 |
| U78C U116G | -2.79 |
| G77C C89G G122U C123U | -1.58 |
| C80U A111G | -0.196 |
| C82G C114U | -2.95 |
| U78A U112A | 1.06 |
| G77U A105G | -2.9 |

| Variant | polymerase ribozyme fitness (log ratio) |
| --- | --- |
| A84U C102U C123U | -1.1 |
| C85U U112C | 1.15 |
| G77A A83U A84C C86A C101U G117C | -6.46 |
| U78C A83U | -0.61 |
| C82U U87A | -0.441 |
| G77A U112A | 0.751 |
| G77A U112G | 0.316 |
| C82U G127A | -1.24 |
| G77C C97U U109A | -5.64 |
| C86G U126C | -1.74 |
| C80G A121U | -3.78 |
| U78C G135A | -1.44 |
| C79U G113A | -1.38 |
| C79U G110U G120C G122A | -4.4 |
| A84U G128C | -2.56 |
| C79G U92C | -3.03 |
| C86A C104A C124G G128U U133A | -1.59 |
| C79U C104A | -2.22 |
| U78C U92C U96C U106A | -1.75 |
| C85G C86A | -1.69 |
| U78C U126C U129C | -2.29 |
| U78C C99A U106C | -4.95 |
| A84U A105C U116C | -5.74 |
| C79A A83U | -3.6 |

| Variant | polymerase ribozyme fitness (log ratio) |
| --- | --- |
| C80U G117C | -3.58 |
| A84C G120U | 1.51 |
| C82G U112G | -2.98 |
| U78C C115U | 0.0691 |
| A83C C86G | -1.46 |
| G77U C114G | -2.88 |
| G77A A121U | 1.88 |
| C80U U112G G117C | -5.23 |
| U81C C82A | -1.8 |
| U81A U129C | -1.37 |
| C76U U92G | -3.28 |
| U81G U112G | -5.41 |
| C86A G110A C123G | -1.37 |
| C79A G117C | -5.12 |
| C79A G117A | -2.46 |
| C86G U116A | -4.49 |
| U81A G110A | -2.37 |
| C82A C94U C98U U106C | -2.21 |
| C82G C101A C115A | -2.63 |
| C82G C102A G120A G122U | -2.05 |
| U81G G110U G128A | -6.9 |
| A84G U130G | -1.3 |
| C85G U106A | -1.05 |
| U78C U81A U87G C123G | 1.68 |

| Variant | polymerase ribozyme fitness (log ratio) |
| --- | --- |
| U78A A105G | -2.86 |
| C79A U92C C98G C104A C114G | -7.71 |
| C85A G128C | -4.07 |
| A84U C97U | -0.894 |
| U78C A111G G117A | -2.7 |
| A83G U109C | -5.77 |
| A83G C97U U109A | -5.36 |
| C82U G113U | -2.32 |
| C82U G113C | -2.19 |
| C82G A83C C115G G122A | -2.67 |
| C86A G93U C115U | -4.53 |
| C79U C89A C115A | -0.609 |
| C85G C123A | -0.897 |
| A83C U106C | -0.823 |
| A83C U106A | 0.162 |
| C85A U96A | -2.43 |
| G77U U125A | -1.21 |
| U78A A95G C102A | -2.41 |
| G77A C89A | -1.73 |
| C79U A91U | -2.48 |
| C82G C94G | -2.14 |
| U81A C94U G117A C123G | -5.66 |
| C82G C86U | -0.172 |
| G77C A90G A111G | -0.0361 |

| Variant | polymerase ribozyme fitness (log ratio) |
| --- | --- |
| C82U C114U | -2.08 |
| U78C U132C | -0.13 |
| C82G U132A | -0.6 |
| A84C U87A U96A | -1.65 |
| C82U C88A | -0.557 |
| U78C C88A | -0.513 |
| C82G U109G | -5.33 |
| C85G U133G | -2.39 |
| A84U U131G | -0.716 |
| U78C U112A G113A G122C U130C | -1.11 |
| C82A U116C | -0.539 |
| C79U C94G A100C G117C | -6.32 |
| U78A C94U C115A G127C | -1.41 |
| A84C C98A C114G U116C | -4.74 |
| C79G C115G | -4.07 |
| U78G C97U U116C A121U U131A | 0.0734 |
| C82G A108G A111G A121C | -5.85 |
| A84G U109G | -5.8 |
| U81G G110A | -6.43 |
| C79A C88U | -1.33 |
| C80A C82U A83U C101G | -5.83 |
| C79U C89A G117U C123G | -1.41 |
| C79U G93U | -1.77 |
| U78C U87A | 1.12 |

| Variant | polymerase ribozyme fitness (log ratio) |
| --- | --- |
| U78C U87G | 0.287 |
| U78C U87C | 0.532 |
| U81C A121G | 0.253 |
| C85G A108G | -3.15 |
| A84U C114U | -2.03 |
| U78C A91G G93U | -2.35 |
| A84C C94G U96C C124U | -0.869 |
| C80U G110A | -1.21 |
| C82A U112A C114G | -0.66 |
| C80A U130C | -2.51 |
| C86U A119U | -0.189 |
| A84G U116G | -2.89 |
| C85U C101G C115A | -2.93 |
| G77A C79U G120U C123A | 0.335 |
| U81C | -0.208 |
| U81A | -1.01 |
| U81G | -3.8 |
| C85G G113C C114A U132C | -6.29 |
| G77A A95C | -0.839 |
| U81G C104U G122A | -4.33 |
| A84G C98A | -6.26 |
| C82U C86A C97A | -4.95 |
| U78G C97G | -4.29 |
| U78G C97A | -2.84 |

| Variant | polymerase ribozyme fitness (log ratio) |
| --- | --- |
| A83G C97A | -5.59 |
| U78G C123U | 0.876 |
| U78A G93A C97A A121C | -5.11 |
| U78G C86U U133A | -0.63 |
| G77U U92G C124U | -1.84 |
| U81C C86U U116G | -3.1 |
| C86U G117A | -1.56 |
| C79U A95C A118U | -0.263 |
| C82U U96A U109C | -5.99 |
| C86U C88U | 0.0768 |
| C79U C94A C99U A121G | -2.9 |
| C86G A108G U130A | -3.28 |
| A84U C94A C115A | -1.46 |
| C85G C114G | -3.82 |
| C85U C101A C104A | -3.57 |
| A84G G127C | -2 |
| C80U C114A | -1.85 |
| G77C G93A | -0.532 |
| A84C C124U | 1.55 |
| C82A C94U | -0.596 |
| C79A C89A | -3.43 |
| C86A U112C | -0.51 |
| C82G C123U | 0.314 |
